Biological target: T1, GST-Dun1 (Saccharomyces cerevisiae, UniProt P39009 1-513)
T1 construct: Control GST fusion; The species is stated only in the background paragraph, not where the pull-down is told; not shown: glutathione S-transferase (GST) fusion partner
T1 sequence (looked up): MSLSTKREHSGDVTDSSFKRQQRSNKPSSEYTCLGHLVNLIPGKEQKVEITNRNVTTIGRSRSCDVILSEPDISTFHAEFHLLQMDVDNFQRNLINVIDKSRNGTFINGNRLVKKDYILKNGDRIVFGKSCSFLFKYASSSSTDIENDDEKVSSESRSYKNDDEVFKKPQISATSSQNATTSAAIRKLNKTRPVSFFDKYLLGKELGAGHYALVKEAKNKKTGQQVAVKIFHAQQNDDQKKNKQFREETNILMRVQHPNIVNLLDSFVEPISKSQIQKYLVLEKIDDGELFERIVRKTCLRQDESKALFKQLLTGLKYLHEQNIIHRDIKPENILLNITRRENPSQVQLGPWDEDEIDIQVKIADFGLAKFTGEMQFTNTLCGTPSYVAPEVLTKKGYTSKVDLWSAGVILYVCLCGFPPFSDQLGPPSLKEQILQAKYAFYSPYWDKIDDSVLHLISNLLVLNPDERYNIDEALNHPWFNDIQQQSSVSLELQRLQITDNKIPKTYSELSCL
Experiment: GST pull-down on glutathione beads from baculovirus extracts, immunoblot with anti Chk1 antibodies

B1: His6-tagged hChk1 (enzyme)
chain: MAVPFVEDWDLVQTLGEGAYGEVQLAVNRVTEEAVAVKIVDMKRAVDCPENIKKEICINKMLNHENVVKFYGHRREGNIQYLFLEYCSGGELFDRIEPDIGMPEPDAQRFFHQLMAGVVYLHGIGITHRDIKPENLLLDERDNLKISDFGLATVFRYNNRERLLNKMCGTLPYVAPELLKRREFHAEPVDVWSCGIVLTAMLAGELPWDQPSDSCQEYSDWKEKKTYLNPWKKIDSAPLALLHKILVENPSARITIPDIKKDRWYNKPLKKGAKRPRVTSGGVSESPSGFSKHIQSNLDFSPVNSASSEENVKYSSSQPEPRTGLSLWDTSPSYIDKLVQGISFSQPTCPDHMLLNSQLLGTPGSSQNPWQRLVKRMTRFFTKLDADKSYQCLKETCEKLGYQWKKSCMNQVTISTTDRRNNKLIFKVNLLEMDDKILVDFRLSKGDGLEFKRHFLKIKGKLIDIVSSQKVWLPATHHHHHH
notes: Expressed in baculovirus; used as a crude baculovirus extract in the pull-down and purified in the kinase assay; also called hChk1-His6; His6-tagged hChk1 derivative
B1: no binding.

— USRE40789 (BAYLOR COLLEGE OF MEDICINE, dated 2009)
